# Test results: article PMC5816610
# What was measured:
# [1] = target: sigma70-RNA polymerase holoenzyme (UniProt P0A7Z4+P0A8V2+P0A8T7+P0A800+P00579); test: EMSA; details: 1x Transcription buffer (composition in cited ref 50), 37 C, 1 pmol DNA, 10 min then 30 min with protein; 5% PAGE in 1xTBE; purified CRP +/-200 uM cAMP …
# [2] = tested on: CRP (purified); test: EMSA; details: 1x Transcription buffer (composition in cited ref 50), 37 C, 1 pmol DNA, 10 min then 30 min with protein; 5% PAGE in 1xTBE; purified CRP +/-200 uM cAMP …
Substance,binding [1],binding signal (fold vs no cAMP) [2]
ATTTAACGGCAGCAAGGCTATTCAGCAGTTCGTTCGGGTCAATACCGTCAGCGATCAGCATTTCGCGATATTGCTGCAGTTTACGAGTGCGCTCTTCAACTTC (double strand) [hns internal region without promoters],no binding,–
yihU/V intergenic region,–,1.3
yihV/W intergenic region,–,1.3
